From patent US20230093708A1, “PROTEIN NANOPARTICLE DESIGN AND APPLICATION” (Duke University, priority 2020, published 2023) come the findings set out here.

Non-standard residues stand in square brackets, D forms with d. Phe(4-N3) = [N-]=[N+]=Nc1ccc(C[C@H](N)C(=O)O)cc1

The nature of data set [1]: Critical assembly concentration (CAC) by DLS dilution series. It is filed as physicochemical. As for the experimental part:
Lastly, we also wanted to determine the critical assembly concentration (CAC) of the individual constructs. The Rh values were measured with DLS over a dilution series from the mid-micromolar down to the low nanomolar range. […] Curiously, the mere introduction of crosslinking sites seems to dramatically decrease the CAC. Generally, the worm-forming constructs had lower CACs than their spherical analogues and so do pAzF-containing constructs in comparison to analogous pAzF-free polypeptides.

Data set [2] is described as follows: DLS of native and crosslinked pAzF diblock constructs in PBS and GuHCl. It is filed as physicochemical. An excerpt: We wanted to thoroughly investigate the effects of pAzF-introduction as well as nanoparticle crosslinking on nanoparticle self-assembly. For this, we started by characterizing solely our five different ELP/RLP diblock architectures without any C-terminal functionalization. After expression and purification of the diblock constructs using ITC, the pAzF-containing constructs were crosslinked in solution by exposure to UV irradiation and characterized using dynamic light scattering (DLS). […] Generally, both processes seem to have increased the measured radii with this effect being more pronounced for the worm-forming constructs.
Apart from changes in nanoparticle morphology we were particularly interested in the effect pAzF-crosslinking had on their stability. […] GuHCl is a well-known denaturing agent that disrupts any inter- and intramolecular electrostatic forces and completely breaks down the quaternary, tertiary and secondary structure of most known proteins. Covalent bonds—such as the ones formed by pAzF-crosslinking—however remain unaffected by GuHCl, thus, the addition of this denaturing agent was expected to give us insights on the stability of our crosslinked nanoparticles. […] All native samples on the other hand resorted to complete unimerization upon exposure to GuHCl. As the Rh values for the crosslinked particles in GuHCl were generally larger than in PBS, the DLS data furthermore indicates a swelling behavior in the presence of the denaturing agent. This can most probably be attributed to the RLP core which is assumed to be completely collapsed in PBS but will however try to reach an elongated, random-coil morphology in the presence of GuHCl.
The first step of the characterization process was to produce crosslinked particles for the functionalized diblock constructs and to analyze whether the attachment of the ligands had caused any significant changes in particle size. […] Whatever the reason was, it had no effect on the crosslinking process as the particles still remained stable after GuHCl exposure.
Dynamic light scattering of cross-linkable protein nanoparticles was performed. […] However, these crosslinked particles remain assembled, actually growing slightly in size due to chain swelling of the core and corona in this new buffer. These novel scaffolds support various targeting domains and assemble into nearly identically sized nanoparticles between […] in hydrodynamic radius.

B1: UAA4-80: pAzF-containing worm-forming diblock construct (protein)
chain: QYPSDGRGQYPSDGRGQYPSDGRGQYPSDGRG[Phe(4-N3)]QYPSDGRGQYPSDGRGQYPSDGRGQYPSDGRG[Phe(4-N3)]QYPSDGRGQYPSDGRGQYPSDGRGQYPSDGRG[Phe(4-N3)]QYPSDGRGQYPSDGRGQYPSDGRGQYPSDGRG[Phe(4-N3)]QYPSDGRGQYPSDGRGQYPSDGRGQYPSDGRG[Phe(4-N3)]
Take B1: the CAC in data set [1] lay in the range of 30 to 50 nM. For the same molecule, the “RH (nm)” value in data set [2] (15 μm in 7.2M GuHCl, crosslinked) is 138.1 ± 12.5 nm; in data set [2] (15 μm in 7.2M GuHCl, native (not crosslinked)) it was 7.4 ± 1.9 nm; in data set [2] (15 μm in PBS, crosslinked) it was 86.2 ± 4.5 nm; in data set [2] (15 μm in PBS, native (not crosslinked)), 55.7 ± 2.3 nm.
